Test results: paper PMC9117659, “Phase transition and remodeling complex assembly are important for SS18-SSX oncogenic activity in synovial sarcomas” (Nature Communications, 2022)

Experiments:
Conditions in all cases: both partners purified
SNF11^(38-169) = target: T1, SNF11^(38-169) (S. cerevisiae, UniProt P38956 38-169); experiment: AUC; sedimentation velocity, 4 °C, interference detection, 50 mM MES pH 6.0, 50 mM NaCl, 1 mM EDTA, 1 mM DTT; SEDFIT
T1 construct: Cloned into one of the two multiple cloning sites of pETDuet-1
T1 sequence (looked up): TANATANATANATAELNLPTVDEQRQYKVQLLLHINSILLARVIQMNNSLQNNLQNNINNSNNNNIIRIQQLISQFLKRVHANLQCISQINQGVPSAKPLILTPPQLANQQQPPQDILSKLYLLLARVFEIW

[1] = target: T2, Human SS18 (residues 1-387), purified recombinant (human, UniProt Q15532-2 1-387); experiment: SEC; purified human proteins or fragments run together on a size-exclusion column; coelution, fractions on SDS-PAGE
T2 construct: The MBP-his6 vector is told for the proteins studied in phase separation; also called SS18^(1-387); SS18-WT; source: E. coli BL21(DE3) Codon Plus, purified (Ni-NTA, SEC)

SS18^(14-101) = target: T3, SS18^(14-101) (human, UniProt Q15532 14-101); experiment: AUC; sedimentation velocity, 4 °C, interference detection, 50 mM MES pH 6.0, 50 mM NaCl, 1 mM EDTA, 1 mM DTT; SEDFIT
T3 construct: SS18, human, residues 14-101, includes the SNH domain; also called SS18 fragment aa 14-101 (includes the SNH domain); source: E. coli BL21(DE3) Codon Plus, purified
T3 sequence (Q15532 14-101): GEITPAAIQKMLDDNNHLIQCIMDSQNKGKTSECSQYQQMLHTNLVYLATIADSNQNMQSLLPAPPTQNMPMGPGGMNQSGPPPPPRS

T2 sequence (Q15532 other isoform, or with tags, fused parts or gaps): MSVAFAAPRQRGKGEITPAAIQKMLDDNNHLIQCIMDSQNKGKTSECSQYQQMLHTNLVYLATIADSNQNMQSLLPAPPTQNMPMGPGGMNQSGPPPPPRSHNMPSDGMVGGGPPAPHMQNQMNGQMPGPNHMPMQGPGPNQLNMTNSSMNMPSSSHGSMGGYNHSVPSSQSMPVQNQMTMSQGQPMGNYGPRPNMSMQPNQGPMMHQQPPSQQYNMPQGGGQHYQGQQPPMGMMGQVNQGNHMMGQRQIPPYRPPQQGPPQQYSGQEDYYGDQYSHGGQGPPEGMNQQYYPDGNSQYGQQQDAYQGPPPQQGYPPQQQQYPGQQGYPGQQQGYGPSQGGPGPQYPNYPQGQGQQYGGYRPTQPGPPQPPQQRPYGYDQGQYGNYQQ

B1: SNF2^(248-308), 60-residue fragment including the QLQ domain of SNF2 (domain or fragment, S. cerevisiae, UniProt P22082 248-308, looked up)
chain: FTAEQSELLKAQITSLKCLVNRKPIPFEFQAVIQKSINHPPDFKRMLLSLSEFARRRQPTD
notes: Cloned into one of the two multiple cloning sites of pETDuet-1
- stoichiometry N (SNF11^(38-169)): 1

B2: BRG1^(1-282), N-terminal 282-residue fragment of BRG1 (domain or fragment, human, UniProt P51532 1-282, looked up)
chain: MSTPDPPLGGTPRPGPSPGPGPSPGAMLGPSPGPSPGSAHSMMGPSPGPPSAGHPIPTQGPGGYPQDNMHQMHKPMESMHEKGMSDDPRYNQMKGMGMRSGGHAGMGPPPSPMDQHSQGYPSPLGGSEHASSPVPASGPSSGPQMSSGPGGAPLDGADPQALGQQNRGPTPFNQNQLHQLRAQIMAYKMLARGQPLPDHLQMAVQGKRPMPGMQQQMPTLPPPSVSATGPGPGPGPGPGPGPGPAPPNYSRPHGMGGPNMPPPGPSGVPPGMPGQPPGGPPK
notes: Cloned into a modified pET32a (Trx-his6, N-terminal); the methods describe PreScission cleavage of the Trx-his6 tag in general; Cy3-labelled only for imaging; source: E. coli BL21(DE3) Codon Plus, purified (Ni-NTA, SEC, ion exchange); not shown: Trx, N-terminal, cleaved; His6, N-terminal, cleaved
- binding result [1]: binds

B3: BRG1^(172-213) (domain or fragment, human, UniProt P51532 172-213, looked up)
chain: FNQNQLHQLRAQIMAYKMLARGQPLPDHLQMAVQGKRPMPGM
notes: In the crystal it stood fused to SS18^(14-101) on one chain; source: E. coli BL21(DE3) Codon Plus, purified
- stoichiometry N (SS18^(14-101)): 1
